Assays:
[1] = biological target: T1, Flag/6xhis-CALRdel52 (CALRW12.007) (human, UniProt P27797 18-417); assay: SPR, forced degradation: pH 5.0
T1 construct: also called human CALRdel52
T1 sequence (looked up): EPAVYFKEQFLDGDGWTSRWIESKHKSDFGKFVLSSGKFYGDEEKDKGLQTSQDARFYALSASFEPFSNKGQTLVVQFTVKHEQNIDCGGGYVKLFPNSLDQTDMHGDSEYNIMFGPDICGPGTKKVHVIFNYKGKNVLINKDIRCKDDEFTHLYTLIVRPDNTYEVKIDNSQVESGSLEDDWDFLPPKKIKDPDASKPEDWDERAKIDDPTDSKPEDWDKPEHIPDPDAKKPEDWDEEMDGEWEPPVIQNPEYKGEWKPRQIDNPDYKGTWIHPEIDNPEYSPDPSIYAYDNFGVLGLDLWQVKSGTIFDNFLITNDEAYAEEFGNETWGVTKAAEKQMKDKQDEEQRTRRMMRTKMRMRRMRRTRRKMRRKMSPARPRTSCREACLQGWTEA

[2] = biological target: T2, Avi/his-CalR-Ins5 (CALRW28.004) (human, UniProt P27797 18-417, limits assumed); assay: SPR, forced degradation: pH 5.0
T2 construct: also called human CALRins5
T2 sequence (looked up): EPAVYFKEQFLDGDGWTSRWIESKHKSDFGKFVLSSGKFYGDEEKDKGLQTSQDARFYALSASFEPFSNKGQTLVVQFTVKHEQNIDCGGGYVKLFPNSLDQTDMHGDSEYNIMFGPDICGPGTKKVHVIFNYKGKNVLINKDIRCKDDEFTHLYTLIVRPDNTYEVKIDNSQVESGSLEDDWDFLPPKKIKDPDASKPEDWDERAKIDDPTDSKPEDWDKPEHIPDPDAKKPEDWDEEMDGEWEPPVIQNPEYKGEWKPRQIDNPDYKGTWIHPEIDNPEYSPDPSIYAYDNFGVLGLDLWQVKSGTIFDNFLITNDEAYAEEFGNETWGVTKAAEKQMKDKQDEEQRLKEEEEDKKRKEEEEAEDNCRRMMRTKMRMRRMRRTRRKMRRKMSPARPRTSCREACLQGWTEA

[3] = biological target: T3, CD3EG-HSA-6xHis (CD3W220.002) (human, UniProt P07766 22-118; P09693 23-103); assay: SPR, forced degradation: pH 5.0
T3 construct: also called human CD3; not shown: human serum albumin (HSA); 6xHis tag
T3 sequence (P07766 other isoform, or with tags, fused parts or gaps): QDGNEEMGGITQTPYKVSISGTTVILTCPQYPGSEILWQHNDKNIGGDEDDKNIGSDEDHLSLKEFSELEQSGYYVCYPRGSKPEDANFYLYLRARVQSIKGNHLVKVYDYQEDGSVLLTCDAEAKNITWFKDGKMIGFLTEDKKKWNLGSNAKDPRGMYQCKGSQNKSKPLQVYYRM

[4] = biological target: T2, Avi/his-CalR-Ins5 (CALRW28.004); assay: SPR
[5] = biological target: T4, thrombopoietin receptor (MPL) on cells without CALRmut (UniProt P40238 26-635, limits assumed); assay: flow cytometry on ELF-153 MPL cells, 1 h at 37 C, AF647 secondary antibody, Geometric Mean
T4 construct: whole, on cells; endogenous on healthy donor CD34+ cells; also called TPOR
T4 sequence (looked up): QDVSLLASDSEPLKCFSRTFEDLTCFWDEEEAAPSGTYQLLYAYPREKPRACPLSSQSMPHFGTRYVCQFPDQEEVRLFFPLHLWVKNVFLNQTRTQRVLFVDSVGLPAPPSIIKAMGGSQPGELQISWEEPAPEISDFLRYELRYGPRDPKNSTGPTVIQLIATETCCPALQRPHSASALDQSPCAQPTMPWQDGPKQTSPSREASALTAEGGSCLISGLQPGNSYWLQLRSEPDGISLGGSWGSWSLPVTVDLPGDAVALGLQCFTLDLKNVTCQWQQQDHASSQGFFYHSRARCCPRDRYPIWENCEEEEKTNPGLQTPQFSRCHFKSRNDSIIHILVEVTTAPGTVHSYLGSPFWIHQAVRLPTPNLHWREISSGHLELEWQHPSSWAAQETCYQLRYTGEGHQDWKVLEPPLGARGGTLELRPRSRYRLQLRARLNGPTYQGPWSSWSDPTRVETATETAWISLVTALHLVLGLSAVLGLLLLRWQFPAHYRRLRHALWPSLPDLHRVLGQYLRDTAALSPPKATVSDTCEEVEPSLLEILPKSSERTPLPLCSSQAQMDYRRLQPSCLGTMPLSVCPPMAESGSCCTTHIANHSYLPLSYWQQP

B1: C3CRB73 CALRmut x CD3 bispecific antibody (bispecific antibody, human IgG1, kappa, L234A L235A)
heavy: EVQLLESGGGLVQPGGSLRLSCAVSGIDLSNNAISWVRQAPGKGLEYVGVIGNTGDTYYADSAKGRFTISRDSSKTTLYLQMNSLRAEDTAVYFCVRGPPSYSSSVKNIWGQGTLVTVSSASTKGPSVFPLAPSSKSTSGGTAALGCLVKDYFPEPVTVSWNSGALTSGVHTFPAVLQSSGLYSLSSVVTVPSSSLGTQTYICNVNHKPSNTKVDKKVEPKSCDKTHTCPPCPAPEAAGGPSVFLFPPKPKDTLMISRTPEVTCVVVSVSHEDPEVKFNWYVDGVEVHNAKTKPREEQYNSTYRVVSVLTVLHQDWLNGKEYKCKVSNKALPAPIEKTISKAKGQPREPQVYTLPPSREEMTKNQVSLSCAVKGFYPSDIAVEWESNGQPENNYKTTPPVLDSDGSFFLVSKLTVDKSRWQQGNVFSCSVMHEALHNRFTQKSLSLSPGK
light: DIQMTQSPSSVSASVGDRVTITCQSSQSVYNNNWLSWLQQKPGKAPKRLIYDASKLESGVPSRFSGSGSGTDFTLTISSVQPEDAATYYCAGGFTGNVYTFGGGTKVEIKRTVAAPSVFIFPPSDEQLKSGTASVVCLLNNFYPREAKVQWKVDNALQSGNSQESVTEQDSKDSTYSLSSTLTLSKADYEKHKVYACEVTHQGLSSPVTKSFNRGEC
scFv: DIQMTQSPSSLSASVGDRVTITCRARQSIGTAIHWYQQKPGCAPKLLIKYASESISGVPSRFSGSGSGTDFTLTISSLQPEDFATYYCQQSGSWPYTFGQGTKLEIKGGGSGGSGGCPPCGGSGGEVQLVESGGGLVKPGGSLRLSCAASGFTFSRYNMNWVRQAPGKGLEWVSSISTSSNYIYYADSVKGRFTFSRDNAKNSLDLQMSGLRAEDTAIYYCTRGWGPFDYWGCGTLVTVSSEPKSSDKTHTCPPCPAPEAAGGPSVFLFPPKPKDTLMISRTPEVTCVVVSVSHEDPEVKFNWYVDGVEVHNAKTKPREEQYNSTYRVVSVLTVLHQDWLNGKEYKCKVSNKALPAPIEKTISKAKGQPREPQVYTLPPSREEMTKNQVSLWCLVKGFYPSDIAVEWESNGQPENNYKTTPPVLDSDGSFFLYSKLTVDKSRWQQGNVFSCSVMHEALHNHYTQKSLSLSPGK
notes: IgG1-AAS; also called JNJ-88549968; CALRB421 Fab x CD3 spFv
For B1, the “% Active” value [1] was 103%, the Kd [1] was 0.114 nM and the “% Active” value [2] was 98%. For the same binder, the Kd [2] was 0.0342 nM, the “% Active” value [3] was 100% and the Kd [3] was 0.231 nM. The Kd [4] was 0.0331 nM and the binding result [5] was “no binding (tested: 100 nM)”.

From patent publication US20260125457A1 (Janssen / Centocor, published 2026)
